Patent US9803012B2, “Compositions and methods for regulating SAS1R” (UNIVERSITY OF VIRGINIA PATENT FOUNDATION, priority 2005, dated 2017)

Legend:
Assay type in all cases: cell-based
[1] = system: mouse sperm and mouse eggs; assay: Competitive assay of sperm-egg binding with recombinant mouse SLLP2; conditions: 5, 25, 50, 100 and 200 μg/ml, relative to BSA (200 μg/ml) or PBS controls
Method: (§1) For comparison to the use of human sperm SLLP2, an experiment was performed to determine if purified mouse SLLP2 would bind to Zona intact mouse eggs. […] Competitive assays were then performed to determine whether the addition of recombinant mouse SLLP2 to a mixture of mouse sperm and mouse eggs could inhibit binding of sperm and eggs. Various amounts of recombinant mouse SLLP2 were added (5, 25, 50, 100, and 200 μg/ml) and the number of sperm bound per egg was determined.

[2] = system: mouse eggs; assay: Binding of SLLP2 to mouse eggs
Method: To analyze the biologic activity of human SLLP2, it was determined whether it would bind to an egg, in this case, a mouse egg.
as §1

[3] = system: mouse sperm-egg fusion; assay: Mouse sperm-egg fusion with recombinant mouse SLLP2; conditions: 100 or 200 μg/ml, relative to BSA and PBS controls
Method: Next, it was determined whether recombinant mouse SLLP2 could inhibit mouse sperm-egg fusion. In groups treated with recombinant mouse SLLP2 the number of sperm fused per egg was reduced to about 0.1 sperm fused per egg, at concentrations of 100 or 200 μg/ml recombinant mouse SLLP2, relative to BSA and PBS control treatments.

[4] = system: mouse eggs; assay: Fertilization of mouse eggs with mouse sperm with recombinant mouse SLLP2
Method: Recombinant mouse SLLP2 at concentrations of 25, 50, 100, and 200 μg/ml was incubated with sperm and egg, and compared to BSA and PBS controls as described above. It can be seen that fertilization occurred at a rate of about 75% in the BSA and PBS controls groups. […] Also provided are comparisons of human SLLP2 to other mammalian sequences, and well as a comparison indicating the conservation of SLLP2 ortholog in dogs.

B1: recombinant mouse SLLP2: purified recombinant mouse sperm lysozyme-like protein 2 (mature protein SEQ ID NO:16) (protein, listed as Mus musculus)
chain: KIYERCELAKKLEEAGLDGFKGYTVGDWLCVAHYESGFDTSFVDHNPDGSSEYGIFQLNSAWWCNNGITPTQNLCNIDCNDLLNRHILDDIICAKRVASSHKSMKAWDSWTQHCAGHDLSEWLKGCSVRLKTDSSYNNW
With B1 the “number of sperm bound per egg” value [1] was “able to reduce the amount of binding occurring between sperm and egg”, the “binding to Zona-free mouse eggs” value ([2]; mouse SLLP2) was “would bind to Zona-free mouse eggs” and the “binding to Zona intact mouse eggs” value ([2]; purified mouse SLLP2) was “does indeed bind to mouse eggs”. The “number of sperm fused per egg” value [3] was “about 0.1 sperm fused per egg”, the inhibition of fertilization ([4]; 200 μg/ml) was “nearly totally inhibiting fertilization” and the inhibition of fertilization ([4]; 25, 50, 100 and 200 μg/ml, vs BSA and PBS controls) was “inhibited fertilization in a dose-dependent fashion”.
